± gives the standard deviation.
Test: protein stability index of a GFP-peptide fusion (GPS, HEK-293T) (PSI 1-6); higher = more stable
[1] = treatment: DMSO, c terminus: a fixed tail appended
[2] = treatment: MLN4924 1 uM, 8 h, c terminus: a fixed tail appended
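Also: 24-mer peptide tiles fused after GFP, lentivirally expressed, FACS-sorted into six equal bins by GFP/DsRed ratio, decoded by Illumina sequencing, PSI is the read-weighted mean bin number.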

Row | Sequence | protein stability index [1] | protein stability index [2] | protein stability index (treatment: DMSO, c terminus: native) | protein stability index (treatment: MLN4924 1 uM, 8 h, c terminus: native)
1 | CEEKAKKNANRPLLDEIVPVYRRD [ACBD3] | 4.72 ± 0.18 | 4.61 ± 0.55 | – | –
2 | CETCVGSWSIQMRQHHHQSSFPGS | 2.37 ± 0.3 | 2.34 ± 0.44 | – | –
3 | CGLLPISPEALSLGEVAYHDYHGI [ADD1] | 2.18 ± 0.24 | 2.35 ± 0.41 | – | –
4 | CGSARPKPYDPPGEKMVAAKVKGE [ATF4] | 4.57 ± 0.17 | 4.82 ± 0.33 | – | –
5 | CKAFFKRSIQGHNDYICPATNQCT [ESR2] | 2.15 ± 0.4 | 2.45 ± 0.51 | – | –
6 | CKSGAAAKGGFSGCSAVLSGGSSS [KRT71] | 3.26 ± 0.46 | 3.44 ± 0.066 | – | –
7 | CLLSSNSRSLLTGGYNLASVSVWD [TLE6] | 2.4 ± 0.38 | 2.18 ± 0.18 | – | –
8 | CNGILTEKMEEEEQTCDPDSSLHW [ZNF396] | 5.13 ± 0.18 | 5.01 ± 0.28 | – | –
9 | CNTFVYSSSKGTIRLCDMRASALC [PPP2R2B] | 2.5 ± 0.53 | 2.34 ± 0.51 | – | –
10 | CPLTRSNGDLSRSLSPSPLGSSAA [FCHO1] | 4.17 ± 0.22 | 4.17 ± 0.33 | – | –
11 | CQGVSEAAHRLARRLYHLEGFQRC [PSD2] | 2.41 ± 0.21 | 2.54 ± 0.17 | – | –
12 | CQLALQQKRETLSPLCLIPMVTSP [KCTD13] | 2.27 ± 0.16 | 2.19 ± 0.17 | – | –
13 | CRKFPRDMKAMSPENQEYFEKHRW [RHOBTB2] | 3.22 ± 0.2 | 3.18 ± 0.29 | – | –
14 | CSSFMAPPVTDLGELRRRPGDMKT [CPOX] | 3.43 ± 0.3 | 3.31 ± 0.48 | – | –
15 | CTDHELENHSMYCVQCKMPVCYQC [TRIM9] | 4.23 ± 0.23 | 4.33 ± 0.36 | – | –
16 | CYEHFAELDIPQSVQQNGSIYIHV [CLPTM1] | 2.75 ± 0.48 | 2.98 ± 0.45 | – | –
17 | DAAAILLDEQNKRPCRKFLLTGQC [ZMAT5] | 2.98 ± 0.45 | 3 ± 0.59 | – | –
18 | DAGSPYLIGLISDRLRRNWPPSFL [SPNS1] | 2.22 ± 0.28 | 2.08 ± 0.25 | – | –
19 | DAINEEIRMIQEEKESTELRAEEI [PPFIA4] | 5.71 ± 0.15 | 5.51 ± 0.25 | – | –
20 | DALQRYGTSHGAPPARGPRMSYGG [RBMY1A1] | 3.82 ± 0.23 | 3.82 ± 0.21 | – | –
21 | DAQEIMQSLRDLGVKISEQQAEKI [SLC25A25] | 3.81 ± 0.21 | 3.79 ± 0.47 | – | –
22 | DASVQPGPFRTLLQFLYTGQLDEK [RHOBTB1] | 2.51 ± 0.33 | 2.72 ± 0.3 | – | –
23 | DDDAQILPSPVQACSEDSLFLRCS [DRICH1] | 4.17 ± 0.16 | 4.02 ± 0.37 | – | –

Row | Sequence | protein stability index [1] | protein stability index [2] | protein stability index (treatment: DMSO, c terminus: native) | protein stability index (treatment: MLN4924 1 uM, 8 h, c terminus: native)
24 | DDDKYKITLKYPHYFPVMKKCCIP [NLN] | 2.9 ± 0.23 | 2.49 ± 0.47 | – | –
25 | DDHGDECSYTDLLPQDEGGGGYSS [KCNA4] | 5.52 ± 0.22 | 5.62 ± 0.082 | – | –
26 | DDHLQQPLQNQKILKRTGQRYEHG [ZNF649] | 4.84 ± 0.085 | 4.97 ± 0.23 | – | –
27 | DDSPRSALAAATAAAAAAASAAAA [SPAG8] | 4.79 ± 0.39 | 4.86 ± 0.42 | – | –
28 | DDYTSAIEVQPNFEVPYYNRGLIL [TTC32] | 2.4 ± 0.45 | 2.42 ± 0.38 | – | –
29 | DEDLDLIPPKSVNPTCMCCQATSS [FAM219A] | 4.63 ± 0.33 | 4.53 ± 0.63 | – | –
30 | DEGRLVLEFSLLSYAFGKFPTVVW [SOAT1] | 2.33 ± 0.68 | 3.07 ± 0.14 | – | –
31 | DEKQQEANETLAEMEEELRYAPLS [VTI1B] | 5.55 ± 0.15 | 5.55 ± 0.2 | – | –
32 | DESGYVSGYKHAGTYDQKVQGGK [TPPP] | – | – | 5.24 ± 0.15 | 5.4 ± 0.24
33 | DEVARRWGKRKNKPKMNYEKLSRG [ETS2] | 4.11 ± 0.35 | 4.31 ± 0.52 | – | –
34 | DEWACELRLFGRVLERAACLRRCK [P3H4] | 2.74 ± 0.49 | 2.8 ± 0.6 | – | –
35 | DFPDILEQQRKLETYLQNHFAEEE [TENT5C] | 4.45 ± 0.27 | 4.56 ± 0.22 | – | –
36 | DGEEIPVQKNILAAASPYIRTKLN [GAN] | 4.13 ± 0.33 | 4.32 ± 0.28 | – | –
37 | DGTFSPVTLALFFVLYFLLACWTY [CLCN6] | 3.07 ± 0.34 | 2.9 ± 0.21 | – | –
38 | DHIIEKKRTIIPTLVEAIKEQDGR [DFFB] | 4.63 ± 0.24 | 4.68 ± 0.2 | – | –
39 | DLDETLIHSHHDGVLRPTVRPGTP [CTDNEP1] | 4.53 ± 0.086 | 4.67 ± 0.21 | – | –
40 | DLEPGVLMSAQTITSETTSTTTTT [EPB41L3] | 5.19 ± 0.32 | 5.17 ± 0.11 | – | –
41 | DLNNCKNNLEPILEGYISNLRKQL [KRT71] | 2.58 ± 0.21 | 2.76 ± 0.5 | – | –
42 | DLRTVDPETQARLEALLEAAGIGK [ANKRD17] | 3.84 ± 0.36 | 3.94 ± 0.16 | – | –
43 | DLSKPPCRKAKEIRKERKRLKLMQ [ATE1] | 3.55 ± 0.13 | 3.64 ± 0.35 | – | –
44 | DMLREMFSDSRSNNDDDEDEDDED [TAF7L] | 5.36 ± 0.36 | 5.63 ± 0.17 | – | –
45 | DNAEAAFSDDEEDLNSKGKKREFR [INTS3] | 5.51 ± 0.16 | 5.47 ± 0.2 | – | –
46 | DNWIPLLWCANILGYAVSTFAMVK [DHCR7] | 3.04 ± 0.44 | 3.17 ± 0.12 | – | –

Row | Sequence | protein stability index [1] | protein stability index [2] | protein stability index (treatment: DMSO, c terminus: native) | protein stability index (treatment: MLN4924 1 uM, 8 h, c terminus: native)
47 | DPLFGMCEKFLQEVDFFQRYFIAD [INTS4] | 2.6 ± 0.36 | 2.21 ± 0.35 | – | –
48 | DPLPAAAVGAAAEAEADEEADPPA [SNX8] | 5.59 ± 0.3 | 5.71 ± 0.14 | – | –
49 | DPTWIESPKTNGHIENGPFSLEQQ [SRPK2] | 4.78 ± 0.11 | 4.75 ± 0.22 | – | –
50 | DQIRQGIQLKSVADGQESTPPTPA [WASL] | 5.33 ± 0.16 | 5.51 ± 0.15 | – | –
51 | DQNASTHTPQSSVKTSVPSSKSSG [CLINT1] | 5.02 ± 0.24 | 5.2 ± 0.14 | – | –
52 | DQVPSMQDGSESFFFRHGHRGLLT [SPAG8] | 3.39 ± 0.28 | 3.54 ± 0.35 | – | –
53 | DRKSVKFVETRLRDLPDTPRRFTF [TRIM39] | 2.98 ± 0.12 | 3.08 ± 0.29 | – | –
54 | DSDENSKPSVDTEGPALVEIDRSV [MIA2] | 5.16 ± 0.78 | 5.29 ± 0.56 | – | –
55 | DSFVCQCSEGFLINEDLKTCSRVD [MATN2] | 3.57 ± 0.38 | 3.9 ± 0.45 | – | –
56 | DSGGSDVDLDPTDGKLFPSDGFRD [ELF3] | 5.38 ± 0.16 | 5.42 ± 0.15 | – | –
57 | DSLDEARSSGSEGTPADTGDLSPG [PWWP2B] | 5.6 ± 0.18 | 5.52 ± 0.15 | – | –
58 | DSLLLHSSGQCRRRKRTYWNDSCG [WEE1] | 2.75 ± 0.29 | 2.82 ± 0.47 | – | –
59 | DSSEKELEPEAAEEALENGPKESL [ACBD3] | 5.62 ± 0.24 | 5.55 ± 0.22 | – | –
60 | DSVAEVAAKARDTGILIFAIGVGQ [MATN2] | 2.73 ± 0.9 | 2.64 ± 0.97 | – | –
61 | DSYSSSRSDLYSSGRDRVGRQERG [RBMX] | 4.72 ± 0.059 | 4.84 ± 0.22 | – | –
62 | DSYSSTQHVPEELDLSSSSQMSPL [ATF6] | 5.29 ± 0.12 | 5.28 ± 0.073 | – | –
63 | DTGVAFELRDSSAYHVPNRTLASG [DNAAF3] | 3.87 ± 0.18 | 3.94 ± 0.054 | – | –
64 | DVDLTIHGRHIDCPATWGPSVEQA [FOXJ1] | 3.95 ± 0.16 | 3.94 ± 0.3 | – | –
65 | DVFERDWYSPYAKTLQPTKQPNCS [PLD5] | 3.49 ± 0.54 | 3.24 ± 0.15 | – | –
66 | DVRLLPRRLPLAFRDATSAPLRKL [DYRK1B] | 3.17 ± 0.27 | 3.02 ± 0.15 | – | –
67 | DVVFEIQGTTVPAHRAILVARCEV [RHOBTB3] | 2.69 ± 0.85 | 2.51 ± 0.44 | – | –
68 | DYMKEVGVGFATRKVAGMAKPNMI [FABP4] | 3.13 ± 0.48 | 3.06 ± 0.64 | – | –
69 | EADINGLRRVLDELTLSKTDLEMQ [KRT13] | 4.32 ± 0.079 | 4.26 ± 0.3 | – | –

Row | Sequence | protein stability index [1] | protein stability index [2] | protein stability index (treatment: DMSO, c terminus: native) | protein stability index (treatment: MLN4924 1 uM, 8 h, c terminus: native)
70 | EAEALAGTGLVLDEQLNEFHCLWD [HDAC6] | 4.29 ± 0.061 | 4.15 ± 0.45 | – | –
71 | EAECEKSSATTYFWYREALDISDS [SLC6A17] | 3.94 ± 0.36 | 3.83 ± 0.29 | – | –
72 | EAEDQEEKEDAEKENIEKDEDDVD [SRPK2] | 5.66 ± 0.32 | 5.79 ± 0.2 | – | –
73 | EAMYHCCWNTSYCSIKCQQEHWHA [ZMYND11] | 2.3 ± 0.45 | 2.65 ± 0.43 | – | –
74 | EATKEVHTQAENAEFMRNFQKGQV [HMOX1] | 5.04 ± 0.17 | 5.21 ± 0.23 | – | –
75 | ECFETLRGDERILSILRHQNLLKE [CHGA] | 2.9 ± 0.24 | 2.85 ± 0.34 | – | –
76 | EDERWTNNFREYNLHRVAAHELGH [MMP1] | 3.73 ± 0.19 | 3.62 ± 0.2 | – | –
77 | EDFSLPAYMDRRDHPLPEVAHVKH [COX4I1] | 4.32 ± 0.28 | 4.59 ± 0.18 | – | –
78 | EDSIPLRGLSQNLFSNSDHQRDGT [SASS6] | 4.94 ± 0.15 | 4.99 ± 0.2 | – | –
79 | EDSKELRALRKMVSNMSGPSGEEE [CBY2] | 5.15 ± 0.21 | 5.25 ± 0.13 | – | –
80 | EEDDDDDDDDNLPQLKKESELPFV [ANKRD40] | 5.32 ± 0.1 | 5.42 ± 0.18 | – | –
81 | EEENAQLRGALQQGEAFQRALESE [PBXIP1] | 5.43 ± 0.32 | 5.39 ± 0.49 | – | –
82 | EEMRELRRKIRELQLRYSLRILIG [BEX5] | 2.76 ± 0.75 | 2.5 ± 0.51 | – | –
83 | EENMERIGEEVRQLMEKLREKQLS [BEX1] | 4.57 ± 0.38 | 4.35 ± 0.5 | – | –
84 | EEQESVDTGEEEEGGDESDLSSES [EHMT1] | 5.57 ± 0.19 | 5.64 ± 0.16 | – | –
85 | EESEKAMQERVQRLEAARLSLEEE [LRRC45] | 5.48 ± 0.2 | 5.57 ± 0.091 | – | –
86 | EEVVSTLDAVQVLSGVSQLLPKSR [FCHO1] | 4.3 ± 0.28 | 4.43 ± 0.24 | – | –
87 | EFFRESVNRFGTYPALASKNGKKW [ACSBG2] | 2.87 ± 0.45 | 3.2 ± 0.28 | – | –
88 | EFLTNELSRKLMQLQHEKAELEQH [CCDC6] | 2.98 ± 0.16 | 3.05 ± 0.3 | – | –
89 | EFQMFPKSRLSSVSVTYCSVSQDF [ETS2] | 2.23 ± 0.25 | 2.15 ± 0.21 | – | –
